The RNAGym collection of RNA variant scans (doi:10.1073/pnas.2313332121)

B1: TPR t1 (parent)
chain: GACCAAUCUGCCCUCAGAGCUCGAGAACAUCUUCGGAUGCAGAGGAGGCAGGCUUCGGUGGCGCGAUAGCGCCAACGUCCUCAACCUCCAAUGCAUCCCACCACAUGAUGAUGCCUGAAGAGCCUUGGUUUUUUG

Variants of: B1
Assay: polymerase ribozyme fitness, log enrichment relative to wild type (log ratio); higher = more active; in vitro selection for triplet polymerase activity
In short: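 Both subunits of a heterodimeric triplet polymerase ribozyme were given their own mutant library, built by PCR and transcribed. Each library was annealed with a biotinylated primer, the partner subunit and triplets, incubated frozen at −7 °C, and its extended constructs gel-excised, captured on streptavidin beads and amplified by RT-PCR, all in one round done in triplicate. Fitness is the logarithm of genotype enrichment relative to wild-type enrichment, with replicates averaged by inverse-variance weighting. That logarithm is base 2, and Illumina-sequenced genotypes needed ≥10 input reads and ≥1 read per output.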

Variant	polymerase ribozyme fitness (log ratio)
GACCAAUCUGCCCUGAGAGCUCGAGAACAUCUUCGGAUGCAAAGGAGGCAGGCUUCGGUGGCGCGAUAUCGCCAACGUCCUCAACCUGCAAUGCAUCCCACCACAUGAUGAUGCCUGAAGAGCCUUGGUUUUUUG [C15G G42A G69U C88G]	-2.25
GACCAAUCUGCCCUGAGAGCUCGAGAACAUCUUCGGAUGCAGAGGAGGCAGGCUUCGGUGGCGCGAUAGCGCCAACGUCCUCAAGCUCCAAUGCAACCCACCACAUGAUGAUGACUCAAGAGCCUUGGUUUUUUG [C15G C85G U96A C114A G117C]	-3.58
GACCAAUCUGCCCUGAGAACUCGAGAACAUCUUCGGAUGCAGAGGAGGCAGGCUUCGGUGGCGCGAUAGCGCUAACGUCCUCAACCUCCAAUGCAUCCCACCACAUGAUGAAGCCUGAAGAUCCUUGGUUUUUUG [C15G G19A C73U U112A G122U]	-3.84
GACCAAUCUGCCCUGAGAGCUCGAGAACAUCUUCGGAUGCAGAGGAGGCAGUCUUCGGUGGCGCGAUAGCGCCAAUGUCCUCAACCUCCAAUGCACCCUACCACAUGAUGGUGCCUGAAGAGCCUUGGUUUUUUG [C15G G52U C76U U96C C99U A111G]	-7.38
GACCAAUCUGCCCUGAGAGCUCGAGAACAUCUUCGGAUGCAGAGGAGGCAGGCUUCGGUGGCUCGAUAGCGCCAACGUCCUCAACCUCCAAUGCAACCUACCACAUGAUGAUGCCUUAAGAGCCUUGGUUUUUUG [C15G G63U U96A C99U G117U]	-5.62
GACCAAUCUGCCCUGAGAGCUCGAGAACAUCUUCGGAUGCAGAGGAGGCAGGCUUCGGUGGCGCGAUAGCACCAACGUCCUCAACCUCCGAUGCAUCCCACCACAUGAUGAUGCCUGAAGAGCCUUGGUUUUUUG [C15G G71A A90G]	-3.09
GACCAAUCUGCCCUGAGAGCUCGAUAACAUCUUGGGAUGCAGAGGAGGCAGGCUUCGGUCGCGCGAUAGCGCCAACGUCCUCAACCUCCAAUGCAUCCCACCACAUGAGGAUGCCUGAAGAGCCUUGGUUUUUUG [C15G G25U C34G G60C U109G]	-6.48
GACCAAUCUGCCCUGAGAGCUCGAGAACAUCUUCGGAUGCAGAGGAGGCAGGCUUCGGUGGCGCGAUAGCGCCAACGUCCUCAACCUCCAAUGCAUCCCACCACAUGAUGAUGCCUAAAGAGCCUUGGUUUUUUG [C15G G117A]	-1.61
GACCAAUCUGCCCUGAGAGCUCGAGAACAUCUUCGGAUGCAGAGGAGGCAGGCUUCGGUGGCGCGAUAGCGCCAACGUCCUCAACCUCCAAUACAUCCCACCACAUGAUGAUGCCUGAAGAGCCUUGGUUUUUUG [C15G G93A]	-3.21
GACCAAUCUGCCCUGAGAGCUCGAGAACAUCUUCGGAUGCAGAGGAGGCAGGCUUCGGUGGCGCGAUAGCGCCAACGUCCUCAACCUCCAAUCCAUCCCACCACAUGAUGAUGCCUGAAGAGCCUUGGUUUUUUG [C15G G93C]	-4.1
GACCAAUCUGCCCUGAGAGCUCGAGAACAUCUUCGGACGCAGAGGAGGCAGGCUUCGGUGGCGCGAUAGCGCCAACGUCCUCAACCUCCAAUGCAUCCCACCACAUGAUGAUGCCUGAAGAGCGUUGGUUUUUUG [C15G U38C C124G]	0.313
GACCAAUCUGCCCUGAGAGCUCGAGAACAUCUUCGGAUGCAGAGGAGGCAGGCUUCGGUGUCGCGAUAGCGCCAACGCCCUCAACCUCCAAUGCAUCCCAACACAUGAUGAUGCCUGAAGAGCCUUGGUUUUUUG [C15G G61U U78C C101A]	-3.49
GACCAAUCUGCCCUGAGAGCUCGAGAACAUCUUCGGAUGCAGAGGAGGCAGGCUUCGGUGGCGCGAUAGCGCCAACGUCCUCAACCUCCAAUGCAUCCCACCACAUGAUGAGGCCUGAAGAACCUUGGUUUUUUG [C15G U112G G122A]	-1.95
GACCAAUCUGCCCUGAGAGCUCGAGAACAUCUUCGGAUGCAGAGCAGGCAGGCUUCGGUGGCGCGAUAGCGCCAACGUCCUCAACCUCCAAUGCAUCCCACAACAUGAUGAUUCCUGAAGAACCUUGGUUUUUUG [C15G G45C C102A G113U G122A]	-5.64
GACCAAUCUGCCCUGAGAGCUCGAGAACAUCUUCGGAUGCAGAGGAGGCAGGCUUCGGUGGCGCGAUAGCGCCAACGUCCUCAACCUCCAAUGCAUCCCACCACAUGAAGAUGCCUGAAUAGACUUGGUUUUUUG [C15G U109A G120U C123A]	-6.64
GACCAAUCUGCCCUGAGAGCUCGAGAACAUCUUCGGAUGCAGAGGAGGCAGGCUUCGGUGGCGCGAUAGCUCCAACGUCCUCAACCUCCAAUGCAUCCCACCACAUGAUGAUGCCUGAAGAGCCUUGGUUUUUUG [C15G G71U]	-1.94
GACCAAUCUGCCCUGAUAGCUCGAGAACAUCUUCGGAUGCAGAGGAGGCAGGCUUCGGUGGCGCGAUAGCGCCAACGUCCUCAACAUCCAAUGCAUCCCACCACAUGAUGAUGCCUGAAGAGCCUUGGUUUUUUG [C15G G17U C86A]	-5.4
GACCAAUCUGCCCUGAGAGCUCGAGAACAUCUUCGGAUGCAGAGGAGGCAGGCUUCGGUGGCGCGAUAGCGCCAACGGCCUCAACCUCCAAUGCAUCCCACCACAUGAUGAUGCCUGAAGAGCCUUGGUUUUUUG [C15G U78G]	-2.92
GACCAAUCUGCCCUGAGAGCUCGAGAACAUCUUCGGAUGCAGAUGAGGCAGGCUUCGGUGGCGCGAUAGCGCCAACGUCCUCAACCUCCAAUGCAUCCCACCACAUGAUGAUGCCUGAAGAGCCUUGGUUUUUUG [C15G G44U]	-3.71
GACCAAUCUGCCCUGAGAGCUCGAGAACAUCUUCGGAUGCAGAGGAGGCAGGCUUCGGUGGCGCGAUAGCGCCAACGUCCUCAACCUCCAAUGCAUCCCACCAUAUGAUGAUGCCUGAAGAGCCUUGGUUUAUUG [C15G C104U U132A]	-1.67
GACCAAUCUGCCCUGAGAGCUCGAGAACAUCUUCGGAUGCAGAGGAGGCAGGCUUCGGUGACGCGAUAGCGCCAACGUCCUCAACCUCCAAUGCAUCCCACCACAUGAUGAUGCCUGAAGAGCCUUGGUUUUUUG [C15G G61A]	-1.86
